Reference: article PMC8287583, “Biochemical and Phylogenetic Characterization of a Novel NADP^+-Specific Isocitrate Dehydrogenase From the Marine Microalga Phaeodactylum tricornutum” (Frontiers in Molecular Biosciences, 2021)

Legend:
[1] = target: PtIDH2 A718P mutant (Phaeodactylum tricornutum CCAP 1055/1); experiment: SEC; mutant forms of PtIDH2, Superdex 200 (10/300), 0.5 ml/min; salt of the buffer not stated for this panel
[2] = target: PtIDH2 V609L mutant (Phaeodactylum tricornutum CCAP 1055/1); experiment: as above
[3] = target: Phaeodactylum tricornutum NADP+-specific isocitrate dehydrogenase 2 (PtIDH2), mature form without the signal and transit peptide (Phaeodactylum tricornutum CCAP 1055/1); experiment: SEC-MALS; Superdex 200 (10/300) Increase, 0.5 ml/min, 20 mM Tris-HCl, 10% glycerol, 300 mM NaCl, pH 7.5
[4] = target: Phaeodactylum tricornutum NADP+-specific isocitrate dehydrogenase 2 (PtIDH2), mature form without the signal and transit peptide (Phaeodactylum tricornutum CCAP 1055/1); experiment: SEC; Superdex 200 (10/300) Increase, 0.5 ml/min, 20 mM Tris-HCl, 10% glycerol, pH 7.5, 300 mM NaCl (low salt); calibrated with five protein standards
[5] = target: Phaeodactylum tricornutum NADP+-specific isocitrate dehydrogenase 2 (PtIDH2), mature form without the signal and transit peptide (Phaeodactylum tricornutum CCAP 1055/1); experiment: SEC; Superdex 200 (10/300) Increase, 0.5 ml/min, 20 mM Tris-HCl, 10% glycerol, pH 7.5, 1,000 mM NaCl (high salt); sample incubated in that buffer before chromatography; tetramer to dimers
[6] = target: PtIDH2 L742F mutant (Phaeodactylum tricornutum CCAP 1055/1); experiment: SEC; mutant forms of PtIDH2, Superdex 200 (10/300), 0.5 ml/min; salt of the buffer not stated for this panel
[7] = substrate: NC(=O)c1ccc[n+]([C@@H]2O[C@H](COP(=O)(O)OP(=O)(O)OC[C@H]3O[C@@H](n4cnc5c(N)ncnc54)[C@H](OP(=O)(O)O)[C@@H]3O)[C@@H](O)[C@H]2O)c1; experiment: purified protein; assay type: biochemical, Phaeodactylum tricornutum; details: 50 mM Tris-HCl pH 8.0, 25 °C
[8] = substrate: O=C(O)CC(C(=O)O)C(O)C(=O)O; experiment: purified protein; assay type: biochemical, Phaeodactylum tricornutum; details: Mn2+ 2.0 mM, 0.5 mM NADP+ fixed, 50 mM Tris-HCl pH 8.0, 25 °C, DL-isocitrate used
[9] = substrate: NC(=O)c1ccc[n+]([C@@H]2O[C@H](COP(=O)(O)OP(=O)(O)OC[C@H]3O[C@@H](n4cnc5c(N)ncnc54)[C@H](O)[C@@H]3O)[C@@H](O)[C@H]2O)c1; experiment: purified protein; assay type: biochemical, Phaeodactylum tricornutum; details: DL-isocitrate, 50 mM Tris-HCl pH 8.0, 25 °C, metal not given (wild-type is the Mn2+ value)
[10] = Mn2+ 2.0 mM, 1.0 mM DL-isocitrate fixed
[11] = DL-isocitrate, metal not given (wild-type is the Mn2+ value)

PtIDH2 A718P mutant (enzyme)
stoichiometry N [1]: 4

PtIDH2 V609L mutant (enzyme)
stoichiometry N [2]: 4

Phaeodactylum tricornutum NADP+-specific isocitrate dehydrogenase 2 (PtIDH2), mature form without the signal and transit peptide (enzyme)
stoichiometry N [3]: 4 | stoichiometry N [4]: 4 | stoichiometry N [5]: 2

PtIDH2 L742F mutant (enzyme)
stoichiometry N [6]: 4

B1: PtIDH2 (Phaeodactylum tricornutum CCAP 1055/1) (protein)
chain: PPTSNHRHQPLEHARGSILYTETDEAPALATFSLYPVISKFSALANVDIVPCDISVAGRVLAAFPECLKPSQRVPDNLSYLGKKALEADCAIVKLPNISAPLNQLLECVNELRHKGYDVPLYPHEPSNVEETDVKHRYDKLMGSAVNPVLREGNSDRRVAAPVKAYAQKNPHRMGLWSKASRTHVAHMETGDFYETEQSAVMALPTSVSIVLATKNEGEIVLKAETPLEEGEVVDASRMSVKSLRDFYEREMQDAKDSELMLSLHLKATMMKVSDPIMFGHAIRVFFQDAFDKHGEVLASIGANPNGGLGSVYETIKSKLPADQAATIQADFEACFEDRPWLAMVDSDKGITNLHAPNDIIIDASMPVVVRDSGKMWNKLGELEDVKCLIPDRCYATMYQEVLSYVKTKGQFDVATMGSVANVGLMAKKAEEYGSHDKTFEIPSDGRVVVKDNNTGEVYFEHVVNAGDVWRMCQTKDVAIRDWVRLAVERARATGDRTIFWLDKRRAHDASLIKKVNTYLKDHDTDGLDISIMRPVDAVRISMERATDGKNTISVTGNVLRDYLTDLFPILELGTSAKMLSIVPLLAGGGLYETGAGGSAPKHVQQFVKEGHLRWDSLGEYLALAVALEGLADTAGNPKAKILGDCLNKAVGRILTNRKSPSRVVNQIDNRATNFYVSLYWADFLQQEDPSYKAIFESLTENRGKIVEEFSQCQGTAVDLGGYYLFDPAKTKAAMNPSPTLNKILSSFGPDMN
notes: mature form without putative signal and transit peptide (residues 1-58 of 811 removed), 753 residues, codon-optimized, 6xHis tag from pET-28b (NdeI/XhoI), E. coli Rosetta (DE3); ~80 kDa subunit (theoretical ~82 kDa), ~320 kDa homotetramer; N-term of insert after Met: FRSSTVL (from primer); C-term SSFGPDMN (from primers)
Km [7, 10]: 37.37 ± 4.02 µM | kcat [7, 10]: 119 ± 11 s⁻¹ | kcat/Km [7, 10]: 3.22e+06 M⁻¹ s⁻¹ | Km [8]: 42.69 ± 8.2 µM

B2: PtIDH2 (Phaeodactylum tricornutum CCAP 1055/1; H661L/R672D) (protein)
chain: PPTSNHRHQPLEHARGSILYTETDEAPALATFSLYPVISKFSALANVDIVPCDISVAGRVLAAFPECLKPSQRVPDNLSYLGKKALEADCAIVKLPNISAPLNQLLECVNELRHKGYDVPLYPHEPSNVEETDVKHRYDKLMGSAVNPVLREGNSDRRVAAPVKAYAQKNPHRMGLWSKASRTHVAHMETGDFYETEQSAVMALPTSVSIVLATKNEGEIVLKAETPLEEGEVVDASRMSVKSLRDFYEREMQDAKDSELMLSLHLKATMMKVSDPIMFGHAIRVFFQDAFDKHGEVLASIGANPNGGLGSVYETIKSKLPADQAATIQADFEACFEDRPWLAMVDSDKGITNLHAPNDIIIDASMPVVVRDSGKMWNKLGELEDVKCLIPDRCYATMYQEVLSYVKTKGQFDVATMGSVANVGLMAKKAEEYGSHDKTFEIPSDGRVVVKDNNTGEVYFEHVVNAGDVWRMCQTKDVAIRDWVRLAVERARATGDRTIFWLDKRRAHDASLIKKVNTYLKDHDTDGLDISIMRPVDAVRISMERATDGKNTISVTGNVLRDYLTDLFPILELGTSAKMLSIVPLLAGGGLYETGAGGSAPKLVQQFVKEGHLDWDSLGEYLALAVALEGLADTAGNPKAKILGDCLNKAVGRILTNRKSPSRVVNQIDNRATNFYVSLYWADFLQQEDPSYKAIFESLTENRGKIVEEFSQCQGTAVDLGGYYLFDPAKTKAAMNPSPTLNKILSSFGPDMN
notes: as for B1
Km [9]: 10,271 ± 1,448 μM | kcat [9]: 7.22 ± 0.6 s⁻¹ | kcat/Km [9]: 700 M⁻¹ s⁻¹ | Km [7, 11]: 47,650 ± 8,344 μM | kcat [7, 11]: 22.1 ± 5.5 s⁻¹ | kcat/Km [7, 11]: 500 M⁻¹ s⁻¹

B3: PtIDH2 (Phaeodactylum tricornutum CCAP 1055/1; H661L/R672D/R721S) (protein)
chain: PPTSNHRHQPLEHARGSILYTETDEAPALATFSLYPVISKFSALANVDIVPCDISVAGRVLAAFPECLKPSQRVPDNLSYLGKKALEADCAIVKLPNISAPLNQLLECVNELRHKGYDVPLYPHEPSNVEETDVKHRYDKLMGSAVNPVLREGNSDRRVAAPVKAYAQKNPHRMGLWSKASRTHVAHMETGDFYETEQSAVMALPTSVSIVLATKNEGEIVLKAETPLEEGEVVDASRMSVKSLRDFYEREMQDAKDSELMLSLHLKATMMKVSDPIMFGHAIRVFFQDAFDKHGEVLASIGANPNGGLGSVYETIKSKLPADQAATIQADFEACFEDRPWLAMVDSDKGITNLHAPNDIIIDASMPVVVRDSGKMWNKLGELEDVKCLIPDRCYATMYQEVLSYVKTKGQFDVATMGSVANVGLMAKKAEEYGSHDKTFEIPSDGRVVVKDNNTGEVYFEHVVNAGDVWRMCQTKDVAIRDWVRLAVERARATGDRTIFWLDKRRAHDASLIKKVNTYLKDHDTDGLDISIMRPVDAVRISMERATDGKNTISVTGNVLRDYLTDLFPILELGTSAKMLSIVPLLAGGGLYETGAGGSAPKLVQQFVKEGHLDWDSLGEYLALAVALEGLADTAGNPKAKILGDCLNKAVGRILTNRKSPSSVVNQIDNRATNFYVSLYWADFLQQEDPSYKAIFESLTENRGKIVEEFSQCQGTAVDLGGYYLFDPAKTKAAMNPSPTLNKILSSFGPDMN
notes: as for B1
Km [9]: 5,825 ± 307 μM | kcat [9]: 7.67 ± 1.04 s⁻¹ | kcat/Km [9]: 1300 M⁻¹ s⁻¹ | Km [7, 11]: 2,704 ± 142.8 μM | kcat [7, 11]: 1.01 ± 0.07 s⁻¹ | kcat/Km [7, 11]: 400 M⁻¹ s⁻¹

B4: PtIDH2 (Phaeodactylum tricornutum CCAP 1055/1; H661L/K660T/R672D/R721S) (protein)
chain: PPTSNHRHQPLEHARGSILYTETDEAPALATFSLYPVISKFSALANVDIVPCDISVAGRVLAAFPECLKPSQRVPDNLSYLGKKALEADCAIVKLPNISAPLNQLLECVNELRHKGYDVPLYPHEPSNVEETDVKHRYDKLMGSAVNPVLREGNSDRRVAAPVKAYAQKNPHRMGLWSKASRTHVAHMETGDFYETEQSAVMALPTSVSIVLATKNEGEIVLKAETPLEEGEVVDASRMSVKSLRDFYEREMQDAKDSELMLSLHLKATMMKVSDPIMFGHAIRVFFQDAFDKHGEVLASIGANPNGGLGSVYETIKSKLPADQAATIQADFEACFEDRPWLAMVDSDKGITNLHAPNDIIIDASMPVVVRDSGKMWNKLGELEDVKCLIPDRCYATMYQEVLSYVKTKGQFDVATMGSVANVGLMAKKAEEYGSHDKTFEIPSDGRVVVKDNNTGEVYFEHVVNAGDVWRMCQTKDVAIRDWVRLAVERARATGDRTIFWLDKRRAHDASLIKKVNTYLKDHDTDGLDISIMRPVDAVRISMERATDGKNTISVTGNVLRDYLTDLFPILELGTSAKMLSIVPLLAGGGLYETGAGGSAPTLVQQFVKEGHLDWDSLGEYLALAVALEGLADTAGNPKAKILGDCLNKAVGRILTNRKSPSSVVNQIDNRATNFYVSLYWADFLQQEDPSYKAIFESLTENRGKIVEEFSQCQGTAVDLGGYYLFDPAKTKAAMNPSPTLNKILSSFGPDMN
notes: as for B1
Km [9]: 11,479 ± 299 μM | kcat [9]: 2.25 ± 0.18 s⁻¹ | kcat/Km [9]: 200 M⁻¹ s⁻¹
